Measurements: patent US20120316071A1 (published 2012)
One block for each binder: values may come before it.

Assays:
[1] = target: T1, Recombinant Human DLL4 (R&D Systems Cat#1506-D4/CF) (human, UniProt Q9NR61 27-524); experiment: MSD multispot ECL, antigen spotted on plate; Fab 0.03188 uM; blank spot 536
T1 construct: Bought recombinant protein; also called delta-like protein 4; rHuman DLL4

[2] = target: T2, rHuman ErbB2/Fc Chimera, CF (R&D Systems Cat#1129-ER) (human, UniProt P04626 23-652); experiment: as above
T2 construct: Bought recombinant protein; also called human epidermal growth factor 2 receptor; Fc part of the bought chimera not given

[3] = target: T3, rHuman EGF R/Fc Chimera, CF (R&D Systems Cat#344-ER) (human, UniProt P00533 25-645); experiment: as above
T3 construct: Bought recombinant protein; also called epidermal growth factor receptor; Fc part of the bought chimera not given

[4] = target: T4, rHuman P-Cadherin/Fc Chimera, CF (R&D Systems Cat#861-PC) (human, UniProt P22223 108-654); experiment: as above
T4 construct: Bought recombinant protein; Fc part of the bought chimera not given

[5] = target: T5, rHuman Notch-1/Fc Chimera, CF (R&D Systems Cat#3647-TK) (human, UniProt P46531 19-526); experiment: as above
T5 construct: Bought recombinant protein; Fc part of the bought chimera not given

[6] = target: T6, rHuman IGF-1 sR, CF (R&D Systems Cat#391-GR) (human, UniProt P08069 31-932); experiment: as above
T6 construct: Bought recombinant soluble receptor; also called insulin-like growth factor-1 soluble receptor

[7] = target: T7, rHuman Erythropoietin R/Fc Chimera, CF (R&D Systems Cat#963-ER) (human, UniProt P19235 25-250); experiment: as above
T7 construct: Bought recombinant protein; also called EPO R/Fc; Epo R; Fc part of the bought chimera not given
T7 sequence (looked up): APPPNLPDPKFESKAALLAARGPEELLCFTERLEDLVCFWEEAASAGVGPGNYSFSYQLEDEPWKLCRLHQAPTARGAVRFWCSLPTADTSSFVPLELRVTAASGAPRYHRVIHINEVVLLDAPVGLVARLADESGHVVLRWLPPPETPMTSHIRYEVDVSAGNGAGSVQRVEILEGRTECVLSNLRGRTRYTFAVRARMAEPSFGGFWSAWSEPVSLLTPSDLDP

[8] = target: T8, rHuman CD44/Fc Chimera, CF (R&D Systems Cat#3660-CD) (human, UniProt P16070 21-220); experiment: as above
T8 construct: Bought recombinant protein; Fc part of the bought chimera not given

[9] = target: T9, rHuman HGF R/c-MET/Fc Chimera, CF (R&D Systems Cat#358-MT/CF) (human, UniProt P08581 25-932); experiment: ECL Multispot (MSD), antigen spotted; Fab 50 (µM); blank 386
T9 construct: Bought recombinant protein; also called HGF R/Fc; Fc part of the bought chimera not given

[10] = target: T10, rHuman IGF-1 sR, CF (R&D Systems Cat#391-GR) (human, UniProt P08069 31-932); experiment: as above
T10 construct: Bought recombinant soluble receptor; also called insulin-like growth factor-1 soluble receptor

[11] = target: T11, rHuman Erythropoietin R/Fc Chimera, CF (R&D Systems Cat#963-ER) (human, UniProt P19235 25-250); experiment: as above
T11 construct: Bought recombinant protein; also called EPO R; EPO R/Fc; Fc part of the bought chimera not given
T11 sequence (looked up): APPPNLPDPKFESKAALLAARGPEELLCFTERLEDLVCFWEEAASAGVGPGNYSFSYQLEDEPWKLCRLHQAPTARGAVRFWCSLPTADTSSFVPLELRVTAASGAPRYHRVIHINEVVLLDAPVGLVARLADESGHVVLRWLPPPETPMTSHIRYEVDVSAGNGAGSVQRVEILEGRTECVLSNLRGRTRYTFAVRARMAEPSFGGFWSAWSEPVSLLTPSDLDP

[12] = target: T12, rHuman Notch-1/Fc Chimera, CF (R&D Systems Cat#3647-TK) (human, UniProt P46531 19-526); experiment: as above
T12 construct: Bought recombinant protein; Fc part of the bought chimera not given

[13] = target: T13, rHuman CD44/Fc Chimera, CF (R&D Systems Cat#3660-CD) (human, UniProt P16070 21-220); experiment: as above
T13 construct: Bought recombinant protein; Fc part of the bought chimera not given

[14] = target: T14, rHuman ErbB2/Fc Chimera, CF (R&D Systems Cat#1129-ER) (human, UniProt P04626 23-652); experiment: as above
T14 construct: Bought recombinant protein; Fc part of the bought chimera not given

[15] = target: T15, rHuman P-Cadherin/Fc Chimera, CF (R&D Systems Cat#861-PC) (human, UniProt P22223 108-654); experiment: as above
T15 construct: Bought recombinant protein; Fc part of the bought chimera not given

[16] = target: T16, Recombinant Human DLL4 (R&D Systems Cat#1506-D4/CF) (human, UniProt Q9NR61 27-529); experiment: as above
T16 construct: Bought recombinant protein; also called delta-like protein 4; rHuman DLL4

[17] = target: T17, rHuman Erythropoietin R/Fc Chimera, CF (R&D Systems Cat#963-ER) (human, UniProt P19235 25-250); experiment: Multispot ECL (MSD), antigen spotted on plate, Fab 62.5 nM; blank spot 268
T17 construct: Bought recombinant protein; also called EPO R/Fc; Epo R; Fc part of the bought chimera not given
T17 sequence (looked up): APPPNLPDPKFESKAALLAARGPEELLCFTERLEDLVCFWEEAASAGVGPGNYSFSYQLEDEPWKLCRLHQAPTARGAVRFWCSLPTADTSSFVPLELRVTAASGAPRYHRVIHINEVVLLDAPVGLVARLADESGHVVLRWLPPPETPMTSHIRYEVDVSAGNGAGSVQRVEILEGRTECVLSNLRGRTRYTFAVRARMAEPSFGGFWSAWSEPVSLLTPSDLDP

[18] = target: T18, rHuman IGF-1 sR, CF (R&D Systems Cat#391-GR) (human, UniProt P08069 31-932); experiment: as above
T18 construct: Bought recombinant soluble receptor; also called insulin-like growth factor-1 soluble receptor

[19] = target: T19, rHuman Notch-1/Fc Chimera, CF (R&D Systems Cat#3647-TK) (human, UniProt P46531 19-526); experiment: as above
T19 construct: Bought recombinant protein; Fc part of the bought chimera not given

[20] = target: T20, Recombinant Human DLL4 (R&D Systems Cat#1506-D4/CF) (human, UniProt Q9NR61 27-524); experiment: as above
T20 construct: Bought recombinant protein; also called rHuman DLL4; delta-like protein 4

T9 sequence (P08581 25-932, change not shown): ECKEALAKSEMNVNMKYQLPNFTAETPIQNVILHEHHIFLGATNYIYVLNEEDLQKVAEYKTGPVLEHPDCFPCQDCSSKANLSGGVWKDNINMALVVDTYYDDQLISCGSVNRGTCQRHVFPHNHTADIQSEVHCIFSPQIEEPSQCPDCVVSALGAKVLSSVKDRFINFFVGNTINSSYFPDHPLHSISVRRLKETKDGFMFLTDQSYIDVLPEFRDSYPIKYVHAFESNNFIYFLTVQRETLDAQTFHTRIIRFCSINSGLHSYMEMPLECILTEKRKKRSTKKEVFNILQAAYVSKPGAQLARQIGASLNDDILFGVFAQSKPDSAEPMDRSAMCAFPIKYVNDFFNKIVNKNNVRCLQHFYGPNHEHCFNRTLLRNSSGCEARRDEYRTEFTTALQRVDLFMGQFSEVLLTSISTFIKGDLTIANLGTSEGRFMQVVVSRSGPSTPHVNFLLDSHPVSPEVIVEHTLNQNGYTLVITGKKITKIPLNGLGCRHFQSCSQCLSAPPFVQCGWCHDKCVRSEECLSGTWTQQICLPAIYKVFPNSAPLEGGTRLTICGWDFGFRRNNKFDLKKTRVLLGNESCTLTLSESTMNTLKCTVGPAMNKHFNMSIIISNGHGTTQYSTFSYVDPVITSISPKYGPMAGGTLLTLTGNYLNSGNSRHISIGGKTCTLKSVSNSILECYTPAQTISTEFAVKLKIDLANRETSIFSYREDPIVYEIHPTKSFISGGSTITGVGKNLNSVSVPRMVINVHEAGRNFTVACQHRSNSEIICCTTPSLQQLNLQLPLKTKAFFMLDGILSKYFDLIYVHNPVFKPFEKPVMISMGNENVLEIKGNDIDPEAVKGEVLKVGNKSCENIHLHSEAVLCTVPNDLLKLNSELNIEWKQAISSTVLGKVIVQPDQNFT

ECL signal [1]: 1280
ECL signal [2]: 584
ECL signal [3]: 694
ECL signal [4]: 775
ECL signal [5]: 849
ECL signal [6]: 765
ECL signal [7]: 789
ECL signal [8]: 653
B1: Fab VH4-34_IGHD7-27*01_IGHJ4*01 & L5_IGKJ1*01 (Fab, V domains shown)
VH: QVQLQQWGAGLLKPSETLSLTCAVYGGSFSGYYWSWIRQPPGKGLEWIGEINHSGSTNYNPSLKSRVTISVDTSKNQFSLKLSSVTAADTAVYYCARANWGDYFDYWGQGTLVTVSS
VL: DIQMTQSPSSVSASVGDRVTITCRASQGISSWLAWYQQKPGKAPKLLIYAASSLQSGVPSRFSGSGSGTDFTLTISSLQPEDFATYYCQQANSFPPWTFGQGTKVEIKR
notes: Germline library Fab expressed in E. coli; VH was cloned into Plasmid A, which adds CH1 with His6 and Flag tags

ECL signal [9]: 525
ECL signal [10]: 558
ECL signal [11]: 768
ECL signal [12]: 509
ECL signal [13]: 557
ECL signal [14]: 672
ECL signal [15]: 652
ECL signal [16]: 80000
B2: Fab VH1-46_IGHD6-6*01_IGHJ1*01 S102A/S103P/S104F (APF) & L6_IGKJ1*01 (Fab, V domains shown)
VH: QVQLVQSGAEVKKPGASVKVSCKASGYTFTSYYMHWVRQAPGQGLEWMGIINPSGGSTSYAQKFQGRVTMTRDTSTSTVYMELSSLRSEDTAVYYCAREEYAPFSAEYFQHWGQGTLVTVSS
VL: not shown
notes: Tested as a Fab made in E. coli: VH cloned in Plasmid A (CH1 constant region, His6 and Flag tags), VL in Plasmid C (kappa constant region); also called H:APF & L:wt; APF triple mutant

ECL signal [17]: 7750
ECL signal [18]: 491
ECL signal [19]: 536
ECL signal [20]: 715
B3: Fab VH1-46_IGHD6-13*01_IGHJ4*01 & B3_IGKJ1*01 (Fab, V domains shown)
VH: QVQLVQSGAEVKKPGASVKVSCKASGYTFTSYYMHWVRQAPGQGLEWMGIINPSGGSTSYAQKFQGRVTMTRDTSTSTVYMELSSLRSEDTAVYYCAREGYSSSWYDYFDYWGQGTLVTVSS
VL: not shown
notes: Germline Fab made in E. coli; VH was cloned into Plasmid A (CH1, His6 and Flag tags) and the kappa VL into Plasmid C (kappa CL)
